Target: T1, DNA polymerase V (UmuD′2C) (E. coli, UniProt P04152 1-422; P0AG11 25-139)
T1 chain 1: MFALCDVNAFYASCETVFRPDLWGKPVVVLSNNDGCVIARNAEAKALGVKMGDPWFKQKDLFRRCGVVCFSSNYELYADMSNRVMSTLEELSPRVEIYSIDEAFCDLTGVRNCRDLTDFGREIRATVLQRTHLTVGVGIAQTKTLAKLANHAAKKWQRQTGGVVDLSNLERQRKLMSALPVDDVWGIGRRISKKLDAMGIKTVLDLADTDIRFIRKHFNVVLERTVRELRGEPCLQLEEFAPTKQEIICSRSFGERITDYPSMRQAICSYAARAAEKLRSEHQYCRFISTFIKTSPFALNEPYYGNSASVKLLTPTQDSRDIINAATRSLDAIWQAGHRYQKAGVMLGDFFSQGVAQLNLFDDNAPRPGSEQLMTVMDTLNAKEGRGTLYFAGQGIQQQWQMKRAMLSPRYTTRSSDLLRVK
T1 chain 2: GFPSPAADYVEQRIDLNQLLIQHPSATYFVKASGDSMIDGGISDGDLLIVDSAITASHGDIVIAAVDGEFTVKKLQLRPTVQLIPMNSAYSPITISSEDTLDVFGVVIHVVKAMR
Assay: FP; apparent Kd

B1: RecA D112R, fluorescein-labelled (natural protein)
chain: AIDENKQKALAAALGQIEKQFGKGSIMRLGEDRSMDVETISTGSLSLDIALGAGGLPMGRIVEIYGPESSGKTTLTLQVIAAAQREGKTCAFIDAEHALDPIYARKLGVDIRNLLCSQPDTGEQALEICDALARSGAVDVIVVDSVAALTPKAEIEGEIGDSHMGLAARMMSQAMRKLAGNLKQSNTLLIFINQIRMKIGVMFGNPETTTGGNALKFYASVRLDIRRIGAVKEGENVVGSETRVKVVKNKIAAPFKQAEFQILYGEGINFYGELVDLGVKEKLIEKAGAWYSYKGEKIGQGKANATAWLKDNPETAKEIEKKVRELLLSNPNSTPDFSVDDSEGVAETNEDF
modifications: fluorescein (Fluorescein-EX Protein Labeling Kit); labelled residues not stated
**Q.** How did the Kd turn out when B1 was run?
**A.** 0.297 µM

B2: wild-type E. coli RecA protein, fluorescein-labelled (natural protein)
chain: MAIDENKQKALAAALGQIEKQFGKGSIMRLGEDRSMDVETISTGSLSLDIALGAGGLPMGRIVEIYGPESSGKTTLTLQVIAAAQREGKTCAFIDAEHALDPIYARKLGVDIDNLLCSQPDTGEQALEICDALARSGAVDVIVVDSVAALTPKAEIEGEIGDSHMGLAARMMSQAMRKLAGNLKQSNTLLIFINQIRMKIGVMFGNPETTTGGNALKFYASVRLDIRRIGAVKEGENVVGSETRVKVVKNKIAAPFKQAEFQILYGEGINFYGELVDLGVKEKLIEKAGAWYSYKGEKIGQGKANATAWLKDNPETAKEIEKKVRELLLSNPNSTPDFSVDDSEGVAETNEDF
modifications: fluorescein (Fluorescein-EX Protein Labeling Kit); labelled residues not stated
**Q.** For B2, which Kd is on record?
**A.** 0.239 µM
